The text below walks through data of article PMC3328272, “HIV-1 Nef interaction influences the ATP-binding site of the Src-family kinase, Hck” (BMC Chemical Biology, 2012).

For assay [1], the target named is T1, Human Hck SH3 (Homo sapiens, UniProt P08631).
T1 construct: made in house; host or cells: E. coli BL21(DE3)pLysS
The experiment in a line: Surface plasmon resonance (SPR), Nef binding to immobilized SH3 domain. Particulars: 1:1 Langmuir model. The method, then:
(§1) Recombinant Hck SH3 domain proteins were exchanged into HBS-EP buffer (10 mM HEPES, pH 7.4, 150 mM NaCl, 3 mM EDTA, 0.05% v/v P20 surfactant) and concentrated with an Amicon Ultra 15 ml 3 kDa molecular weight cutoff spin concentrator. Primary untagged Nef proteins were exchanged into HBS-EPD buffer (10 mM HEPES, pH 7.4, 150 mM NaCl, 3 mM EDTA, 0.05% v/v P20 surfactant, 1 mM DTT) and concentrated with an Amicon Ultra 15 ml 10 kDa molecular weight cutoff spin concentrator. SPR analysis was performed on a BIAcore 3000 instrument (GE Healthcare) using a four-channel CM5 biosensor chip with the Hck SH3 domains covalently attached as ligand via standard amine coupling chemistry. […] The initial binding reaction was followed by dissociation for 5 min, and the chip surface was regenerated using HBS-EPD buffer at a flow rate of 30 μl/min for 10 min. Binding curves recorded at each analyte concentration were assessed in triplicate, corrected for buffer effects, and fit to a 1:1 Langmuir binding model using the BIAevaluation 4.1 software suite (GE Healthcare).

The target in assay [2] is T2, Mouse Hck HART (Mus musculus, UniProt P08103, A89S/E88T/E93W/H91F/I90P/R92P).
T2 construct: made in house; host or cells: E. coli BL21(DE3)pLysS
The description is as above. As for the experimental part:
as §1

Assay [3] addresses T3, Mouse Hck SH3 (Mus musculus, UniProt P08103).
T3 construct: made in house; host or cells: E. coli BL21(DE3)pLysS
Described as above. As to conditions: 1:1 Langmuir model. The method, then: as §1

For assay [4], the target named is T4, mHck-TA (Mus musculus, UniProt P08103, Q521E/Q522E/Q523I/T331A).
T4 construct: the N-terminal unique domain was replaced with a hexahistidine tag; hexahistidine (N); made in house; host or cells: Sf9 insect cells (baculovirus)
The experiment in a line: Nef-induced kinase activation over kinase:Nef ratios (Z'-Lyte). The format is biochemical. As for the experimental part: (§2) Protein-tyrosine kinase assays were performed using the FRET-based Z'-Lyte kinase assay kit and Tyr-2 peptide substrate according to the manufacturer's instructions (Life Technologies) and our previous work. All assays were performed in quadruplicate in low-volume, non-binding 384-well plates (Corning). […] The Km for ATP was then calculated from a plot of ATP concentration against initial reaction velocity followed by non-linear regression analysis (GraphPad Prism). […] Development reagent was then added to the reaction for an additional 1 h at room temperature, followed by addition of the stop reagent. Fluorescence was assessed at an excitation wavelength of 400 nm; coumarin fluorescence and the fluorescein FRET signal were monitored at 445 and 520 nm, respectively. […] Raw fluorescence values were corrected for background, and reaction endpoints calculated as emission ratios of coumarin fluorescence divided by the fluorescein FRET signal. […] IC50 values were calculated using a sigmoidal curve fit using GraphPad Prism. […]
(§3) To determine the impact of the SH3-HART modification in the context of near full-length Hck, we next introduced the HART coding sequence into mHck-TA. […] This observation fits with the smaller enhancement in SH3-HART binding to Nef-Consensus as determined by SPR. […]

In assay [5] the target is T5, mHck-TA-HART (Mus musculus, UniProt P08103, A89S/E88T/E93W/H91F/I90P/Q521E/Q522E/Q523I/R92P/T331A).
T5 construct: the N-terminal unique domain was replaced with a hexahistidine tag; hexahistidine (N); made in house; host or cells: Sf9 insect cells (baculovirus)
Described as above. The format is biochemical. As for the experimental part: as §2, §3

Assay [6] has as its target similarly modified Hck SH3 domain. Particulars: ITC; read-out: interaction (KD) with a similarly modified Hck SH3 domain via ITC; cited from earlier work. For orientation: ITC needs no label: the signal is the heat of the interaction.
In assay [7] the target is T6, mHck-TA-HART + Nef-SF2 (Mus musculus, UniProt P08103, A89S/E88T/E93W/H91F/I90P/Q521E/Q522E/Q523I/R92P/T331A).
T6 construct: the N-terminal unique domain was replaced with a hexahistidine tag; hexahistidine (N); made in house; host or cells: Hck: Sf9 insect cells; Nef: E. coli
In kind it is biochemical. The method, then:
(§4) Protein-tyrosine kinase assays were performed using the FRET-based Z'-Lyte kinase assay kit and Tyr-2 peptide substrate according to the manufacturer's instructions (Life Technologies) and our previous work. All assays were performed in quadruplicate in low-volume, non-binding 384-well plates (Corning). […] The Km for ATP was then calculated from a plot of ATP concentration against initial reaction velocity followed by non-linear regression analysis (GraphPad Prism). […] Development reagent was then added to the reaction for an additional 1 h at room temperature, followed by addition of the stop reagent. Fluorescence was assessed at an excitation wavelength of 400 nm; coumarin fluorescence and the fluorescein FRET signal were monitored at 445 and 520 nm, respectively. Reactions run in the absence of ATP served as the 0% phosphorylation control, whereas a stoichiometrically phosphorylated Tyr2 peptide was used as the 100% phosphorylation control. Raw fluorescence values were corrected for background, and reaction endpoints calculated as emission ratios of coumarin fluorescence divided by the fluorescein FRET signal. These ratios were normalized to the ratio obtained with the 100% phosphorylation control peptide. IC50 values were calculated using a sigmoidal curve fit using GraphPad Prism. Additional details of the Z'-Lyte assay principle and calculation of percent inhibition has been described elsewhere.

In assay [8] the target is T7, mHck (Mus musculus, UniProt P08103, Q521E/Q522E/Q523I).
T7 construct: the N-terminal unique domain was replaced with a hexahistidine tag; hexahistidine (N); made in house; host or cells: Sf9 insect cells (baculovirus)
The experiment in a line: Z'-Lyte in vitro kinase assay, mHck alone. In kind it is biochemical. Particulars: read-out: Km, ATP. As for the experimental part:
as §4, with “Additional details of the Z'-Lyte assay principle and calculation of percent inhibition has been described elsewhere.” left out

Assay [9] concerns the target T8, mHck + Nef-SF2 (Mus musculus, UniProt P08103, Q521E/Q522E/Q523I).
T8 construct: the N-terminal unique domain was replaced with a hexahistidine tag; hexahistidine (N); made in house; host or cells: Hck: Sf9 insect cells; Nef: E. coli
In words: Z'-Lyte in vitro kinase assay, mHck + Nef-SF2. The format is biochemical. As to conditions: mHck + Nef-SF2, Nef at 10-fold molar excess; read-out: Km, ATP. As for the experimental part:
as §4, with “Additional details of the Z'-Lyte assay principle and calculation of percent inhibition has been described elsewhere.” left out

In assay [10] the target is T4, mHck-TA. The experiment in a line: Z'-Lyte in vitro kinase assay, mHck-TA alone. The format is biochemical. As to conditions: read-out: Km, ATP. As for the experimental part:
as §4, with “Additional details of the Z'-Lyte assay principle and calculation of percent inhibition has been described elsewhere.” left out

Assay [11] concerns the target T9, mHck-TA + Nef-SF2 (Mus musculus, UniProt P08103, Q521E/Q522E/Q523I/T331A).
T9 construct: the N-terminal unique domain was replaced with a hexahistidine tag; hexahistidine (N); made in house; host or cells: Hck: Sf9 insect cells; Nef: E. coli
The experiment in a line: Z'-Lyte in vitro kinase assay, mHck-TA + Nef-SF2. In kind it is biochemical. As to conditions: mHck-TA + Nef-SF2, Nef at 10-fold molar excess; read-out: Km, ATP. The method, then: as §4, with “Additional details of the Z'-Lyte assay principle and calculation of percent inhibition has been described elsewhere.” left out

Assay [12] addresses T10, mHck-TA + Nef-Consensus (Mus musculus, UniProt P08103, Q521E/Q522E/Q523I/T331A).
T10 construct: the N-terminal unique domain was replaced with a hexahistidine tag; hexahistidine (N); made in house; host or cells: Hck: Sf9 insect cells; Nef: E. coli
In words: Z'-Lyte in vitro kinase assay, mHck-TA + Nef-Consensus. Particulars: Nef at 10-fold molar excess, read-out: Km, ATP. The format is biochemical. The method, then:
as §4, with “Additional details of the Z'-Lyte assay principle and calculation of percent inhibition has been described elsewhere.” left out

The subject of assay [13] is T11, mHck-HART.
T11 construct: the N-terminal unique domain was replaced with a hexahistidine tag; hexahistidine (N); made in house; host or cells: Sf9 insect cells (baculovirus)
The experiment in a line: Z'-Lyte in vitro kinase assay, mHck-HART alone. As to conditions: read-out: Km, ATP. In kind it is biochemical, mouse. The method, then: as §4, with “Additional details of the Z'-Lyte assay principle and calculation of percent inhibition has been described elsewhere.” left out

In assay [14] the test system is T12, mHck-HART + Nef-SF2.
T12 construct: the N-terminal unique domain was replaced with a hexahistidine tag; hexahistidine (N); made in house; host or cells: Hck: Sf9 insect cells; Nef: E. coli
The experiment in a line: Z'-Lyte in vitro kinase assay, mHck-HART + Nef-SF2. In kind it is biochemical, mouse. Particulars: mHck-HART + Nef-SF2, Nef at 10-fold molar excess; read-out: Km, ATP. The method, then: as §4, with “Additional details of the Z'-Lyte assay principle and calculation of percent inhibition has been described elsewhere.” left out

Assay [15] deals with T5, mHck-TA-HART. The experiment in a line: Z'-Lyte in vitro kinase assay, mHck-TA-HART alone. As to conditions: read-out: Km, ATP. The format is biochemical. As for the experimental part: as §4, with “Additional details of the Z'-Lyte assay principle and calculation of percent inhibition has been described elsewhere.” left out
In assay [16] the target is mHck-TA-HART + Nef-Consensus (Mus musculus, UniProt P08103, A89S/E88T/E93W/H91F/I90P/Q521E/Q522E/Q523I/R92P/T331A). The experiment in a line: Z'-Lyte in vitro kinase assay, mHck-TA-HART + Nef-Consensus. The format is biochemical. The method, then: as §4, with “Additional details of the Z'-Lyte assay principle and calculation of percent inhibition has been described elsewhere.” left out

The mark [17] stands for this setting: HART vs wild-type mouse SH3 domain.
Where [18] appears, read: Mouse Hck HART SH3 immobilized, 1:1 Langmuir model.
[19] abbreviates: mHck-TA-HART with Nef-SF2 vs alone.

T1 sequence (P08631 78-138 limits assumed): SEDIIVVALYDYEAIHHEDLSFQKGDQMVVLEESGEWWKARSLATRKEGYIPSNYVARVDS
T3 sequence (P08103 76-136 limits assumed): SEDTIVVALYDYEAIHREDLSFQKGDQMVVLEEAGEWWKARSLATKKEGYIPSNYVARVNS
T6 sequence (P08103 whole entry E88T/A89S/I90P/H91F/R92P/E93W/T331A/Q521E/Q522E/Q523I, looked up, the tested form may be a part): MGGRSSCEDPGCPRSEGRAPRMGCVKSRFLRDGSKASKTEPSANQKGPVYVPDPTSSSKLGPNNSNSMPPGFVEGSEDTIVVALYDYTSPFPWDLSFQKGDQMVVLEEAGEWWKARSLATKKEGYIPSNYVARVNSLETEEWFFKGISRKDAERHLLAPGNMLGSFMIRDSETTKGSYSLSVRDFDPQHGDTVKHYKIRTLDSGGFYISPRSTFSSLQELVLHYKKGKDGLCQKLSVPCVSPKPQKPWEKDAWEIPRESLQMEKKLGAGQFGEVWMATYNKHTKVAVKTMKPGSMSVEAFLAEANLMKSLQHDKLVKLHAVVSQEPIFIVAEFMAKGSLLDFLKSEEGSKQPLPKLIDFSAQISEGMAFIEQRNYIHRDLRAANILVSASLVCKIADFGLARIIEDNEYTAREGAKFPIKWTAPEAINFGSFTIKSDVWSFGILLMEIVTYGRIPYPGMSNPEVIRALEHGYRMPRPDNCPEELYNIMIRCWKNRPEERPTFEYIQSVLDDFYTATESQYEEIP
T2 sequence (P08103 76-136 E88T/A89S/I90P/H91F/R92P/E93W limits assumed): as the sequence (P08103 76-136 limits assumed) above, with E13T, A14S, I15P, H16F, R17P, E18W counted along it
Sequence of mHck-TA-HART + Nef-Consensus (P08103 76-524 E88T/A89S/I90P/H91F/R92P/E93W/T331A/Q521E/Q522E/Q523I): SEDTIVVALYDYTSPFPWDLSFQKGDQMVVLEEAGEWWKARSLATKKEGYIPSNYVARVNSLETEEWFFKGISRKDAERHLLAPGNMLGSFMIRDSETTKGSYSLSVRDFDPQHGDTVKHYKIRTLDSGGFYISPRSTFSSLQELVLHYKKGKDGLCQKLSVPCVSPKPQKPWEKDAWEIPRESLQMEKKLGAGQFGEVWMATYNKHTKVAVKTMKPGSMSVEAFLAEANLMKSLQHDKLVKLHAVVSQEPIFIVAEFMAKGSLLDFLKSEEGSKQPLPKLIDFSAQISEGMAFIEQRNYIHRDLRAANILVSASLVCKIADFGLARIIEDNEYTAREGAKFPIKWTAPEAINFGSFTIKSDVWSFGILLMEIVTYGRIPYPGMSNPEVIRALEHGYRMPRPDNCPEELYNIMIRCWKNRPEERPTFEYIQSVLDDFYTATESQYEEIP
T5 sequence (P08103 76-524 E88T/A89S/I90P/H91F/R92P/E93W/T331A/Q521E/Q522E/Q523I): as above
T4 sequence (P08103 76-524 T331A/Q521E/Q522E/Q523I limits assumed): as the sequence (P08103 76-524 E88T/A89S/I90P/H91F/R92P/E93W/T331A/Q521E/Q522E/Q523I) above, with T13E, S14A, P15I, F16H, P17R, W18E counted along it
T7 sequence (P08103 76-524 Q521E/Q522E/Q523I): as the sequence (P08103 76-524 E88T/A89S/I90P/H91F/R92P/E93W/T331A/Q521E/Q522E/Q523I) above, with T13E, S14A, P15I, F16H, P17R, W18E, A256T counted along it
T8 sequence (P08103 76-524 Q521E/Q522E/Q523I): as the sequence (P08103 76-524 E88T/A89S/I90P/H91F/R92P/E93W/T331A/Q521E/Q522E/Q523I) above, with T13E, S14A, P15I, F16H, P17R, W18E, A256T counted along it
T10 sequence (P08103 76-524 T331A/Q521E/Q522E/Q523I limits assumed): as the sequence (P08103 76-524 E88T/A89S/I90P/H91F/R92P/E93W/T331A/Q521E/Q522E/Q523I) above, with T13E, S14A, P15I, F16H, P17R, W18E counted along it
T9 sequence (P08103 76-524 T331A/Q521E/Q522E/Q523I limits assumed): as the sequence (P08103 76-524 E88T/A89S/I90P/H91F/R92P/E93W/T331A/Q521E/Q522E/Q523I) above, with T13E, S14A, P15I, F16H, P17R, W18E counted along it

Take “Nef-SF2: recombinant HIV-1 Nef protein, B-clade allele SF2, expressed in E. coli”: in assay [1], binding was put at a Kd of 70 ± 10 nM, the ka is 1.60 ± 0.06 M^-1s^-1 × 10^5 and the kd is reported as 1.18 ± 0.04 s^-1 × 10^-2. Moreover, in [2] (setting [17]), the “enhancement of affinity by introduction of the HART sequence” value stood at 13 fold and the “increase in the association rate constant with SH3-HART” value was 2.5 fold. Moreover, the “change in the dissociation rate constant with SH3-HART” value in assay [2] (HART vs wild-type mouse SH3 domain, decrease for Nef-SF2, essentially unchanged for Nef-Consensus) was approximately 5 fold. In assay [2] (setting [18]), this molecule showed an equilibrium dissociation constant (Kd) of 10 nM, a ka of 14.20 ± 1.40 M^-1s^-1 × 10^5 and a kd of 1.43 ± 0.01 s^-1 × 10^-2. In assay [3], the Kd was found to be 130 ± 30 nM, the ka worked out at 5.54 ± 1.77 M^-1s^-1 × 10^5 and the kd was determined as 7.00 ± 0.36 s^-1 × 10^-2. In addition, the “excess of Nef required for full activation” value in assay [4] was 5 fold. Moreover, the “kinase:Nef ratio at maximal activation” value in assay [5] was 1 to 1. Besides, the Kd in assay [6] was 12 nM.

Turning to `CC(C)(C)n1nc(-c2cccc3ccccc23)c2c(N)ncnc21` [NaPP1, reference compound], the “increase in sensitivity to inhibition by NaPP1 in the presence of Nef” value in assay [7] (setting [19]) was “more than three-fold”.

As for `Nc1ncnc2c1ncn2[C@@H]1O[C@H](COP(=O)(O)OP(=O)(O)OP(=O)(O)O)[C@@H](O)[C@H]1O` [ATP], the Km turned out to be 12.1 ± 2 µM in [8]; 14.8 ± 1.4 µM in assay [9]; 62 ± 12.6 µM in assay [10]; 68 ± 10.7 µM in [11]; 84 ± 3.5 µM in [12]; 105 ± 29 µM in assay [13]. The Km came to 49.3 ± 5.8 µM in assay [14]; 181 ± 28.7 µM in assay [15]; 69 ± 17.6 µM in [7] (mHck-TA-HART + Nef-SF2, Nef at 10-fold molar excess, read-out: Km, ATP); 76 ± 23.1 µM in [16] (mHck-TA-HART + Nef-Consensus, Nef at 10-fold molar excess, read-out: Km, ATP). Also, the “reduction of the Km for ATP in the presence of Nef” value in [7] (setting [19]) and in [16] (mHck-TA-HART with Nef-Consensus vs alone) was ~ 2.5 fold in each case.

By Kd is commonly meant the free concentration of one partner at which half of the binding sites on the other are occupied at equilibrium, for simple one-to-one binding. The term Km denotes the substrate concentration at which the rate is half of its maximum.
